In publication PMC1919378 (BMC Structural Biology, 2007):

What was measured:
[1] = biological target: T1, Gnd1 (6PGDH/Gnd1) (Saccharomyces cerevisiae, UniProt P38720); experiment: X-ray crystal structure, […] Å; assay type: binding; conditions: crystallised from 1.28 M tri-sodium citrate pH 6.5; two citrates per monomer in the 6-phosphogluconate site, contacts from both chains
T1 construct: full length, 489 residues; pET28a-derived vector, E. coli Rosetta (DE3); homodimer; residues 1-476 seen in crystal
T1 sequence (P38720 1-489): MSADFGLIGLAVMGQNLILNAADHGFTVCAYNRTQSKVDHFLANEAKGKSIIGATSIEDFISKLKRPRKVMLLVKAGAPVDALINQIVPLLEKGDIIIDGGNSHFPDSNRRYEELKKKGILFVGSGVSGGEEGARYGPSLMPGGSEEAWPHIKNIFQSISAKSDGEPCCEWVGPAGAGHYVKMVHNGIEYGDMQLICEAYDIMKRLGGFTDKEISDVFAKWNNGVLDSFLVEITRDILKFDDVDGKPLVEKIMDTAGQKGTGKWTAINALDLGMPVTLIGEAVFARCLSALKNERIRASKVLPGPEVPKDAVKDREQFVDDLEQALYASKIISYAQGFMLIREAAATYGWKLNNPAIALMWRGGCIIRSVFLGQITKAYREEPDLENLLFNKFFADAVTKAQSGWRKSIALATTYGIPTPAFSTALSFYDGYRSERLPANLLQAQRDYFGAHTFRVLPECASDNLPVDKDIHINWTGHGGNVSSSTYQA

[2] = biological target: the molecule itself; experiment: SEC; dimer found 'through purification and crystallization'; purification by Ni2+ chromatography and gel filtration on Superdex 200 (20 mM Tris-HCl pH 8.0, 200 mM NaCl, 20 mM β-mercaptoethanol); 'homodimer in solution'
[3] = substrate: NC(=O)c1ccc[n+]([C@@H]2O[C@H](COP(=O)(O)OP(=O)(O)OC[C@H]3O[C@@H](n4cnc5c(N)ncnc54)[C@H](OP(=O)(O)O)[C@@H]3O)[C@@H](O)[C@H]2O)c1; experiment: purified protein; conditions: co-substrate 6-phosphogluconate (0.1-0.5 mM, varied), Gly-Gly 50 mM pH 7.5, MgCl2 10 mM, 28°C, ionic strength 0.03
[4] = biological target: the molecule itself; experiment: crystal structure; hanging-drop vapour diffusion at 15°C, 1.28 M tri-sodium citrate pH 6.5; 2.37 Å, molecular replacement; two citrate molecules bound to each monomer

Molecule: O=C(O)CC(O)(CC(=O)O)C(=O)O [citrate]
- X-ray crystal structure, 2.37 Å [1]: two citrate molecules were bound to the active site of each Gnd1 monomer

B1: Gnd1ΔC39 (domain or fragment, S. cerevisiae, UniProt P38720 1-450, looked up)
chain: MSADFGLIGLAVMGQNLILNAADHGFTVCAYNRTQSKVDHFLANEAKGKSIIGATSIEDFISKLKRPRKVMLLVKAGAPVDALINQIVPLLEKGDIIIDGGNSHFPDSNRRYEELKKKGILFVGSGVSGGEEGARYGPSLMPGGSEEAWPHIKNIFQSISAKSDGEPCCEWVGPAGAGHYVKMVHNGIEYGDMQLICEAYDIMKRLGGFTDKEISDVFAKWNNGVLDSFLVEITRDILKFDDVDGKPLVEKIMDTAGQKGTGKWTAINALDLGMPVTLIGEAVFARCLSALKNERIRASKVLPGPEVPKDAVKDREQFVDDLEQALYASKIISYAQGFMLIREAAATYGWKLNNPAIALMWRGGCIIRSVFLGQITKAYREEPDLENLLFNKFFADAVTKAQSGWRKSIALATTYGIPTPAFSTALSFYDGYRSERLPANLLQAQRDYFG
notes: 6-phosphogluconate dehydrogenase Gnd1, S. cerevisiae, ORF YHR183W/GND1, residues 1-450 of 489 (C-terminal 39 residues deleted); Cloned into the pET28a-derived vector and purified as the full-length protein; also called Gnd1 without the C-terminal 39 residues; source: E. coli Rossetta (DE3), purified (Ni2+ chromatography, Superdex 200 gel filtration)
- stoichiometry N [2]: 2

B2: Saccharomyces cerevisiae 6-phosphogluconate dehydrogenase Gnd1 (enzyme, S. cerevisiae, UniProt P38720 1-489, looked up)
chain: MSADFGLIGLAVMGQNLILNAADHGFTVCAYNRTQSKVDHFLANEAKGKSIIGATSIEDFISKLKRPRKVMLLVKAGAPVDALINQIVPLLEKGDIIIDGGNSHFPDSNRRYEELKKKGILFVGSGVSGGEEGARYGPSLMPGGSEEAWPHIKNIFQSISAKSDGEPCCEWVGPAGAGHYVKMVHNGIEYGDMQLICEAYDIMKRLGGFTDKEISDVFAKWNNGVLDSFLVEITRDILKFDDVDGKPLVEKIMDTAGQKGTGKWTAINALDLGMPVTLIGEAVFARCLSALKNERIRASKVLPGPEVPKDAVKDREQFVDDLEQALYASKIISYAQGFMLIREAAATYGWKLNNPAIALMWRGGCIIRSVFLGQITKAYREEPDLENLLFNKFFADAVTKAQSGWRKSIALATTYGIPTPAFSTALSFYDGYRSERLPANLLQAQRDYFGAHTFRVLPECASDNLPVDKDIHINWTGHGGNVSSSTYQA
notes: 6-phosphogluconate dehydrogenase Gnd1, S. cerevisiae strain S288C, ORF YHR183W/GND1, 489 residues; residues 1-476 are seen in the crystal structure; The asymmetric unit holds one monomer (final model 1-476 for one monomer); the dimer is described as the biological unit; also called 6PGDH/Gnd1; 6PGDH
- Km [3]: 35 ± 6 µM
- stoichiometry N [4]: 2

B3: Gnd1ΔC53 (domain or fragment, S. cerevisiae, UniProt P38720 1-436, looked up)
chain: MSADFGLIGLAVMGQNLILNAADHGFTVCAYNRTQSKVDHFLANEAKGKSIIGATSIEDFISKLKRPRKVMLLVKAGAPVDALINQIVPLLEKGDIIIDGGNSHFPDSNRRYEELKKKGILFVGSGVSGGEEGARYGPSLMPGGSEEAWPHIKNIFQSISAKSDGEPCCEWVGPAGAGHYVKMVHNGIEYGDMQLICEAYDIMKRLGGFTDKEISDVFAKWNNGVLDSFLVEITRDILKFDDVDGKPLVEKIMDTAGQKGTGKWTAINALDLGMPVTLIGEAVFARCLSALKNERIRASKVLPGPEVPKDAVKDREQFVDDLEQALYASKIISYAQGFMLIREAAATYGWKLNNPAIALMWRGGCIIRSVFLGQITKAYREEPDLENLLFNKFFADAVTKAQSGWRKSIALATTYGIPTPAFSTALSFYDGYRSER
notes: 6-phosphogluconate dehydrogenase Gnd1, S. cerevisiae, ORF YHR183W/GND1, residues 1-436 of 489 (C-terminal 53 residues, the entire C-terminal tail, deleted); Cloned into the pET28a-derived vector and purified as the full-length protein; also called Gnd1 without the C-terminal 53 residues; source: E. coli Rossetta (DE3), purified (Ni2+ chromatography, Superdex 200 gel filtration)
- stoichiometry N [2]: 2

B4: Gnd1ΔC35 (domain or fragment, S. cerevisiae, UniProt P38720 1-454, looked up)
chain: MSADFGLIGLAVMGQNLILNAADHGFTVCAYNRTQSKVDHFLANEAKGKSIIGATSIEDFISKLKRPRKVMLLVKAGAPVDALINQIVPLLEKGDIIIDGGNSHFPDSNRRYEELKKKGILFVGSGVSGGEEGARYGPSLMPGGSEEAWPHIKNIFQSISAKSDGEPCCEWVGPAGAGHYVKMVHNGIEYGDMQLICEAYDIMKRLGGFTDKEISDVFAKWNNGVLDSFLVEITRDILKFDDVDGKPLVEKIMDTAGQKGTGKWTAINALDLGMPVTLIGEAVFARCLSALKNERIRASKVLPGPEVPKDAVKDREQFVDDLEQALYASKIISYAQGFMLIREAAATYGWKLNNPAIALMWRGGCIIRSVFLGQITKAYREEPDLENLLFNKFFADAVTKAQSGWRKSIALATTYGIPTPAFSTALSFYDGYRSERLPANLLQAQRDYFGAHTF
notes: 6-phosphogluconate dehydrogenase Gnd1, S. cerevisiae, ORF YHR183W/GND1, residues 1-454 of 489 (C-terminal 35 residues deleted); Cloned into the pET28a-derived vector and purified as the full-length protein; also called Gnd1 without the C-terminal 35 residues; source: E. coli Rossetta (DE3), purified (Ni2+ chromatography, Superdex 200 gel filtration)
- stoichiometry N [2]: 2
